Article PMC6783348

B1: A3 (structured_DNA)
DNA: ATCCAGAGTGACGCAGCAACAGAGGTGTAGAAGTACACGTGAACAAGCTTGAAATTGTCTCTGACAGAGGTGGACACGGTGGCTTAGT
B2: A8 (structured_DNA)
DNA: ATCCAGAGTGACGCAGCAGCTCGATCGTATAGCCGTGACGCAGCTTGAAATGGGATCGCGTCCACAGTTTTGGACACGGTGGCTTAGT

Target: CD8a extracellular domain (Homo sapiens, UniProt P01732 22-182)
Test: BLI

Chain of CD8a extracellular domain (P01732 22-182): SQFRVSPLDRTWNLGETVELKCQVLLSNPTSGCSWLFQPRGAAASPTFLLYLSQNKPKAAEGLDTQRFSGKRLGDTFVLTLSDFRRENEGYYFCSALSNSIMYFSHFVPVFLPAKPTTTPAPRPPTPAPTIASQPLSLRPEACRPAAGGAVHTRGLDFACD

| Binder | Kd [nM] |
| --- | --- |
| B1 | 14.7 ± 0.1 |
| B2 | 5.59 ± 0.11 |
